Consider one molecule from patent US20090130104A1 (University of Pennsylvania, published 2009).

This experiment concerns the target low molecular weight single-chain urokinase plasminogen activator (lmw-scuPA), non-targeted (human, UniProt P00749 164-431). As to the kind of experiment: ELISA on plates coated with soluble mouse PECAM. On the procedure: The size and homogeneity of purified scFv/uPA-T was analyzed using 12% SDS-PAGE with or without addition of thrombin (150 nM). Conversion to its two-chain derivative was determined in the presence of 50 mM dithiothreitol (DTT). cDNA encoding the extracellular domain of mouse PECAM (amino acids Glu¹⁸-Lys⁵⁹⁰) was obtained by the reverse transcription polymerized chain reaction (RT-PCR) using mouse lung tissue total RNA. A FLAG affinity tag was fused to the N-terminus and subcloned into the BglII and NotI sites in the pMT/Bip vector. Stable cell lines were generated. Soluble mouse PECAM was purified from secreted supernatant using M2 anti-FLAG affinity chromatography. Specific binding of scFv/uPA-T to soluble PECAM was measured by ELISA. Each well within a 96-well plate was coated with 5 μg/ml soluble mouse PECAM protein overnight, the unbound sites were blocked with PBS containing 5% bovine serum albumin (BSA) at 37° C. for 1 h and various dilutions of scFv/uPA-T or WT lmw-scuPA were added for 1 hour. Unbound protein was removed by washing with PBS and 1 μg/ml anti-uPA monoclonal antibody in PBS containing 1% BSA was added. The wells were washed, horseradish peroxidase conjugated anti-mouse IgG was added, the wells washed again, TMB substrate was added and the optical density at 450 nm (OD450) was measured. […]
(In general: In an ELISA, binding on a coated surface is turned into a signal by an enzyme label.)

B1: soluble mouse PECAM, extracellular domain (Glu18-Lys590) with N-terminal FLAG tag (receptor, UniProt Q08481 18-590, looked up, not shown: small tags and cut ends)
chain: EENSFTINSIHMESLPSWEVMNGQQLTLECLVDISTTSKSRSQHRVLFYKDDAMVYNVTSREHTESYVIPQARVFHSGKYKCTVMLNNKEKTTIEYEVKVHGVSKPKVTLDKKEVTEGGVVTVNCSLQEEKPPIFFKIEKLEVGTKFVKRRIDKTSNENFVLMEFPIEAQDHVLVFRCQAGILSGFKLQESEPIRSEYVTVQESFSTPKFEIKPPGMIIEGDQLHIRCIVQVTHLVQEFTEIIIQKDKAIVATSKQSSEAVYSVMAMVEYSGHYTCKVESNRISKASSIMVNITELFPKPKLEFSSSRLDQGELLDLSCSVSGTPVANFTIQKEETVLSQYQNFSKIAEESDSGEYSCTAGIGKVVKRSGLVPIQVCEMLSKPSIFHDAKSEIIKGHAIGISCQSENGTAPITYHLMKAKSDFQTLEVTSNDPATFTDKPTRDMEYQCRADNCHSHPAVFSEILRVRVIAPVDEVVISILSSNEVQSGSEMVLRCSVKEGTSPITFQFYKEKEDRPFHQAVVNDTQAFWHNKQASKKQEGQYYCTASNRASSMRTSPRSSTLAVRVFLAPWKK
notes: range 18-590; Secreted from Drosophila cells (pMT/Bip vector), purified on M2 anti-FLAG; coated on 96-well plates at 5 ug/ml; also called immobilized extracellular domain of mouse PECAM; immobilized mouse PECAM
As to B1, the binding result is on record as “no binding”.
